Experimental data from patent publication US20250263490A1 (VIB VZW, published 2025).
Blank lines part the entries; values can stand above or below the binder they belong to.

Legend:
[1] = molecular target: T1, recombinant human domain 1-3His6 of the cation-independent mannose-6-phosphate receptor (human, UniProt P11717 41-467); assay: BLI exp 1, dissoc pH 7.4
T1 construct: Biotinylated (NHS-PEG4-biotin) for BLI; Glycosylated; also called hDom1-3His6; hCI-M6PRD1-D3
Procedure: (§1) For each of the 11 anti-CI-M6PR VHHs, a biolayer interferometry (BLI) experiment was performed in which the hDom₁₋₃His₆ was biotinylated and coupled to streptavidin biosensor tips. Afterwards, the tips were incubated with serially diluted VHHs during the association phase and dissociation was performed at pH 7.4. Similarly, dissociation was performed at pH 7.0, pH 6.0 and pH 5.0 as well after regeneration of the biosensor tips. […] The anti-CI-M6PR antibody (clone 2G11) and GBP were used as positive and negative controls, respectively.
(§2) Analysis of the binding kinetics was performed using an Octet Red96 (FortéBio) device with Streptavidin SA Biosensor tips (VWR 733-2145). Therefore, 1 mL of human domain₁₋₃His₆ (0.5 mg/mL in 50 mM MES, 150 mM NaCl, pH 6.5) was incubated at room temperature for 30 minutes with EZ-Link™ NHS-PEG4-Biotin (1 mg) (Thermo Fischer A39259) and NaHCO₃ (100 mM). Biotinylated human domain₁₋₃His₆ was purified using a Zeba spin desalting Column™ (7K MWCO, 2 mL, Thermo Fischer 89890) and 1 μg/mL was used for immobilization on the Streptavidin SA Biosensor tips. The loaded tips were dipped into a particular anti-CI-M6PR VHH solution, serially diluted in kinetics buffer (0.2M NaH₂PO₄, 0.1M Na⁺ citrate, 0.01% BSA, 0.002% Tween20, pH 7.4). This was followed by dissociation of the particular anti-CI-M6PR VHH in kinetics buffer of pH 7.4, followed by regeneration in Glycine (10 mM, pH 3) and neutralisation. Same cycle was repeated but the dissociation was performed at pH 7.0, 6.0, 5.0, 4.5 and 4.0. A reference well and reference sensors were subtracted from ligand sensors afterwards and Savitsky-Golay filtering was applied on the data. Fitting of the data was performed using a 1:1 model, grouped per pH of dissociation.

[2] = molecular target: T1, recombinant human domain 1-3His6 of the …; assay: BLI at pH 7.4, 1st of 2 repeats
Procedure: as §1, §2

[3] = molecular target: T1, recombinant human domain 1-3His6 of the …; assay: BLI exp 2, dissoc pH 5
Procedure: as §1
(§3) Analysis of the binding kinetics was performed using an Octet Red96 (FortéBio) device with Streptavidin SA Biosensor tips (VWR, 733-2145). To this end, 1 mL of hCI-M6PR_D1-D3 (0.5 mg/mL in 50 mM MES, 150 mM NaCl, pH 6.5) was incubated at room temperature for 30 minutes with a two-fold molar excesses of EZ-Link™ NHS-PEG₄-Biotin (Thermo Fischer, A39259) and NaHCO₃ (100 mM, pH 8.3). Biotinylated hCIMPR_D1-D3 was purified using a Zeba spin desalting column (Thermo Fischer, 89890) and protein concentration was calculated by measuring the absorbance at 280 nm (extinction coefficient 50320 M¹ cm⁻¹). Two-fold biotin-labelled antigen was loaded on the tips (2.5 μg/mL) and subsequently dipped into a particular anti-CI-M6PR VHH-containing solution (ranging from 0-100 nM). Serial VHH dilutions were made in kinetics buffer (0.2 M Na₂HPO₄, 0.1 M Na⁺ citrate, 0.01% BSA, 0.002% Tween20, pH 7.4). After association (100 sec), dissociation was conducted (500 sec) for each anti-CI-M6PR VHH in the kinetics buffer, followed by biosensor regeneration in glycine (10 mM, pH 3) and neutralisation. The same cycle was repeated with dissociation performed in kinetics buffer of pH 7.0, 6.5, 6.0, 5.5, and 5.0.
(§4) A reference well and reference sensors were subtracted from ligand sensors afterwards and Savitsky-Golay filtering was applied on the data. Fitting of the data was performed using a 1:1 model, grouped per dissociation pH.

[4] = molecular target: T1, recombinant human domain 1-3His6 of the …; assay: BLI exp 2, dissoc pH 7.4
Procedure: as §1, §2

[5] = molecular target: T1, recombinant human domain 1-3His6 of the …; assay: BLI exp 2, dissoc pH 6
Procedure: as §1, §3, §4

[6] = molecular target: T1, recombinant human domain 1-3His6 of the …; assay: BLI exp 1, dissoc pH 7
Procedure: as §1, §2

[7] = molecular target: T1, recombinant human domain 1-3His6 of the …; assay: ELISA on coated antigen, 1st of 2 repeats
Procedure: FIGS. 4A-4B. Affinity of anti-CI-M6PR VHHs for recombinant human CI-M6PR Domain 1-3His₆ determined by ELISA. A & B. Measurements for each of the 11 anti-CI-M6PR VHHs in serial dilution binding to the coated human CI-M6PR Domain 1-3His₆ antigen. Detection was performed using an anti-VHH antibody coupled to HRP, and measured as the absorbance of the TMB substrate at 450 nm, correlating to the amount of bound VHH as plotted at the Y-axis. The Log₁₀ concentrations of the serially diluted VHHs were plotted at the X-axis. […] A & B represent replicates but using a different concentration of human CI-M6PR Domain 1-3His₆ (in (FIG. 4A): 0-0.75 μM and in (FIG. 4B): 0-1 μM).
We evaluated the affinity of the VHHs against the hDom₁₋₃His₆ using ELISA. Coated hDom₁₋₃His₆ was incubated with serially diluted VHH that was afterwards detected using an anti-VHH antibody, coupled to HRP.

[8] = molecular target: T1, recombinant human domain 1-3His6 of the …; assay: BLI at pH 7.4, 2nd of 2 repeats

Kd [1]: 46.3 nM
koff [1]: 0.00177 s⁻¹
kon [1]: 38100 M⁻¹ s⁻¹
Kd [2]: 46.3 nM
koff [2]: 0.00177 s⁻¹
kon [2]: 38100 M⁻¹ s⁻¹
koff [3]: 0.0106 s⁻¹
kon [3]: 91100 M⁻¹ s⁻¹
Kd [4]: 46.5 nM
koff [4]: 0.00177 s⁻¹
kon [4]: 38100 M⁻¹ s⁻¹
koff [5]: 0.00205 s⁻¹
kon [5]: 39100 M⁻¹ s⁻¹
koff [6]: 0.00148 s⁻¹
kon [6]: 99300 M⁻¹ s⁻¹
EC50 [7]: 0.0657 nM
Kd [8]: 46.5 nM
koff [8]: 0.00177 s⁻¹
kon [8]: 38100 M⁻¹ s⁻¹
B1: anti-CI-M6PR VHH10 (VHH)
VHH: QVQLQESGGGSVQAGGSLRLSCAPAGRTFSRIRMGWFRQAPGKEREFVAAISSGGLSYYADSMKGRFTISRDNAKNTVLLQMNSLEPDDTAVYYCAAVLNDYIDDYVARNPTLYDYWGQGTQVTVSS
notes: His6-tagged; made in Pichia pastoris

Kd [1]: 41.4 nM
koff [1]: 0.00317 s⁻¹
kon [1]: 76700 M⁻¹ s⁻¹
Kd [2]: 41.4 nM
koff [2]: 0.00317 s⁻¹
kon [2]: 76700 M⁻¹ s⁻¹
koff [3]: 0.0253 s⁻¹
kon [3]: 225000 M⁻¹ s⁻¹
Kd [4]: 51 nM
koff [4]: 0.00391 s⁻¹
kon [4]: 76700 M⁻¹ s⁻¹
koff [5]: 0.00665 s⁻¹
kon [5]: 195000 M⁻¹ s⁻¹
Kd [6]: 20.3 nM
koff [6]: 0.00394 s⁻¹
kon [6]: 194000 M⁻¹ s⁻¹
EC50 [7]: 0.249 nM
Kd [8]: 51 nM
koff [8]: 0.00391 s⁻¹
kon [8]: 76700 M⁻¹ s⁻¹
B2: anti-CI-M6PR VHH11 (VHH)
VHH: QVQLQESGGGLVQAGDSLKLSCTASGPTFSEITGGWFRQVPGKEREFVASISSTGITTYYTDSVKGRFTVSRDNAKNTMYLQMNSLKPEDTGVYYCAARSTSRSIAITVGYDYWGQGTQVTVSS
notes: as for B1
